IntAct's records for PubMed 18242179

B1: Calcium/calmodulin-dependent protein kinase kinase 1 (Homo sapiens), Q8N5S9 (parent)
chain: MEGGPAVCCQDPRAELVERVAAIDVTHLEEADGGPEPTRNGVDPPPRARAASVIPGSTSRLLPARPSLSARKLSLQERPAGSYLEAQAGPYATGPASHISPRAWRRPTIESHHVAISDAEDCVQLNQYKLQSEIGKGAYGVVRLAYNESEDRHYAMKVLSKKKLLKQYGFPRRPPPRGSQAAQGGPAKQLLPLERVYQEIAILKKLDHVNVVKLIEVLDDPAEDNLYLVFDLLRKGPVMEVPCDKPFSEEQARLYLRDVILGLEYLHCQKIVHRDIKPSNLLLGDDGHVKIADFGVSNQFEGNDAQLSSTAGTPAFMAPEAISDSGQSFSGKALDVWATGVTLYCFVYGKCPFIDDFILALHRKIKNEPVVFPEEPEISEELKDLILKMLDKNPETRIGVPDIKLHPWVTKNGEEPLPSEEEHCSVVEVTEEEVKNSVRLIPSWTTVILVKSMLRKRSFGNPFEPQARREERSMSAPGNLLVKEGFGEGGKSPELPGVQEDEAAS
partner: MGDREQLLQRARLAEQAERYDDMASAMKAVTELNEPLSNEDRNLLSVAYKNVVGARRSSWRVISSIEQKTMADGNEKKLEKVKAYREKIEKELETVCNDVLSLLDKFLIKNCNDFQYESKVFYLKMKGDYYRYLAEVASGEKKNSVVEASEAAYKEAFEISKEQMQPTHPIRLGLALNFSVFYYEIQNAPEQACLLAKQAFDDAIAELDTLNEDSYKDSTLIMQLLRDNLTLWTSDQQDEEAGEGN

Variants of: B1
Conditions: with 1433f_human YWHAH

| effect of a mutation on the interaction | Variant |
| --- | --- |
| disrupting interaction | S74A |
| disrupting interaction | S475A |

Variants of: B1
Conditions: with 1433f_human YWHAH
Remark: another data set of the same source

| effect of a mutation on the interaction | Variant |
| --- | --- |
| disrupting interaction | S52A;S74A;S458A;S475A |

Variants of: B1
Conditions: with 1433f_human YWHAH
Remark: another data set of the same source

| effect of a mutation on the interaction | Variant |
| --- | --- |
| decreasing interaction | S52A;T108A;S458A;S475A |

Variants of: B1
Conditions: with 1433f_human YWHAH
Remark: another data set of the same source

| effect of a mutation on the interaction | Variant |
| --- | --- |
| disrupting interaction | S52A;S74A;T108A;S475A |
